Laboratory results reported in patent US12570725.
Several values for one entry are separate records, joined by “and”; a condition that tells them apart may be missing. Identical values can stand only once. Like-named read-outs stand apart in the source and are kept apart here.

Experiments:
[1] = target: whole Zika virus (ZIKV) virion (Zika virus); experiment: whole ZIKV virion ELISA, 5-fold dilutions from 100 ug/ml
[2] = target: whole Zika virus (ZIKV) virion (Zika virus); experiment: cell-based or functional assay
[3] = target: whole Zika virus (ZIKV) virion (Zika virus); experiment: whole ZIKV virion ELISA; molar conversion with IgM ~970 KDa
[4] = target: whole Zika virus (ZIKV) virion (Zika virus); experiment: whole ZIKV virion ELISA; molar EC50 of IgM compared with IgG
[5] = target: Dengue virus serotype 2 virion (Dengue virus serotype 2); experiment: cell-based or functional assay
[6] = target: Dengue virus serotype 4 virion (Dengue virus serotype 4); experiment: cell-based or functional assay
[7] = target: whole Zika virus (ZIKV) virion (Zika virus); experiment: cell-based or functional assay; remark: listed apart in the source
[8] = target: Dengue virus serotype 1 virion (Dengue virus serotype 1); experiment: cell-based or functional assay
[9] = target: Dengue virus serotype 3 virion (Dengue virus serotype 3); experiment: cell-based or functional assay
[10] = target: whole Zika virus (ZIKV) virion (Zika virus); experiment: whole ZIKV virion ELISA; molar conversion with IgG ~150 KDa

B1: DH1017.IgM (antibody, V domains shown)
VH: QVQLQESGPGLVKPSQTLSLTCAVSGGSISSGDSYWSWIRQHPGKGLEWIGSIYYSGSTYYNPSLKSRVTIPIDTSKNQFSLKLSSVTAADTAVYYCARHVGDLRVNDAFDIWGQGTMVTVSS
VL: QSVLTQPPSVSAAPGQKVTISCSGSSSNIGNNFVSWYQRLPGTPPKLLIYDSDKRPSGIPDRFSGSKSGTSATLGITGLQTGDEGDYYCGTWDRSLSVVVFGGGTKLTVL
For B1, the EC50 [1] was 0.046 µg/mL, the FRNT50 [2] was 24.7 ng/ml and 25.5 pM and the fold difference in neutralizing activity, IgM versus IgG at equal numbers of molecules [2] was 40 fold. For the same binder, the EC50 [3] was 0.474 nM, the fold difference of molar EC50 against DH1017.IgG [4] was 6 fold and the FRNT50 [5] was > 5 µg/mL. For the same binder, the FRNT50 [6] was > 5 µg/mL, the FRNT50 [7] was 6.57 ng/mL and the FRNT50 [8] was > 5 µg/mL. For the same binder, the FRNT50 [9] was > 5 µg/mL.

B2: DH1017.IgG (antibody, V domains shown)
VH: B1 VH
VL: B1 VL
B2 showed an EC50 [1] of 0.045 µg/mL and an EC50 [10] of 3 nM.
